Measured values published in PMC4822319, “Quaternary structure of a G-protein-coupled receptor heterotetramer in complex with Gi and Gs” (BMC Biology, 2016).

B1: adenosine A2A receptor fused to mCherry (A2AR-mCherry) (receptor, human, UniProt P29274 1-412, looked up)
chain: MPIMGSSVYITVELAIAVLAILGNVLVCWAVWLNSNLQNVTNYFVVSLAAADIAVGVLAIPFAITISTGFCAACHGCLFIACFVLVLTQSSIFSLLAIAIDRYIAIRIPLRYNGLVTGTRAKGIIAICWVLSFAIGLTPMLGWNNCGQPKEGKNHSQGCGEGQVACLFEDVVPMNYMVYFNFFACVLVPLLLMLGVYLRIFLAARRQLKQMESQPLPGERARSTLQKEVHAAKSLAIIVGLFALCWLPLHIINCFTFFCPDCSHAPLWLMYLAIVLSHTNSVVNPFIYAYRIREFRQTFRKIIRSHVLRQQEPFKAAGTSARVLAAHGSDGEQVSLRLNGHPPGVWANGSAPHPERRPNGYALGLVSGGSAQESQGNTGLPDVELLSHELKGVCPEPPGLDDPLAQDGAGVS
notes: adenosine A2A receptor, human, UniProt P29274; The construct for single-particle tracking is not described in the main text; details may stand in Additional file 11 (Supplementary methods); also called A2A-mCherry; A2A-Cherry; source: HEK-293T, transiently transfected, on living cells; not shown: mCherry, C-terminal, kept

Assays:
[1] = target: adenosine A1 receptor fused to a hemi-Rluc8 (A1R-nRluc8) or to a hemi-Venus (A1R-nVenus) (human) (UniProt P30542)
[2] = target: the molecule itself; assay: single-particle tracking and brightness analysis (TIRFM); living HEK-293T cells expressing A1R-GFP alone or A2AR-mCherry alone; number of receptors in a particle from the brightness distribution of the individual particles

Chain of adenosine A1 receptor fused to a hemi-Rluc8 (A1R-nRluc8) or to a hemi-Venus (A1R-nVenus) (human) (P30542 whole entry, the tested form may be a part): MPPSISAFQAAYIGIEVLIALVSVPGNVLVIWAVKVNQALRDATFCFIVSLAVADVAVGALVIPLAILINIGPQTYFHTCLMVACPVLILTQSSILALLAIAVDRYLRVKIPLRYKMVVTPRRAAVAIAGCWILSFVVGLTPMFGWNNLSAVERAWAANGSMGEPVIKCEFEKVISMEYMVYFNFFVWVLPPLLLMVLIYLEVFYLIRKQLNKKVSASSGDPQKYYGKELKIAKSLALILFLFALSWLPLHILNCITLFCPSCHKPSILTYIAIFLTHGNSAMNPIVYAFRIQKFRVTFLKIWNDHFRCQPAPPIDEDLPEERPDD

Molecule	decrease of BRETmax of the complementation BRET (A1R and A2AR fused to hemi-Rluc8 and hemi-Venus, the heterotetramer) after pertussis toxin (10 ng/ml, 16 h); endogenous Gi [1] [%]	stoichiometry N [2]
α-subunit of Gi fused to Rluc (Gi-Rluc) (from UniProt P63096 1-354) (natural protein)	35	
B1		3
